We go through two molecules from paper PMC12669767.

The test has as its target T1, HECW1, endogenous in HEK293T, Q76N89.
T1 chain: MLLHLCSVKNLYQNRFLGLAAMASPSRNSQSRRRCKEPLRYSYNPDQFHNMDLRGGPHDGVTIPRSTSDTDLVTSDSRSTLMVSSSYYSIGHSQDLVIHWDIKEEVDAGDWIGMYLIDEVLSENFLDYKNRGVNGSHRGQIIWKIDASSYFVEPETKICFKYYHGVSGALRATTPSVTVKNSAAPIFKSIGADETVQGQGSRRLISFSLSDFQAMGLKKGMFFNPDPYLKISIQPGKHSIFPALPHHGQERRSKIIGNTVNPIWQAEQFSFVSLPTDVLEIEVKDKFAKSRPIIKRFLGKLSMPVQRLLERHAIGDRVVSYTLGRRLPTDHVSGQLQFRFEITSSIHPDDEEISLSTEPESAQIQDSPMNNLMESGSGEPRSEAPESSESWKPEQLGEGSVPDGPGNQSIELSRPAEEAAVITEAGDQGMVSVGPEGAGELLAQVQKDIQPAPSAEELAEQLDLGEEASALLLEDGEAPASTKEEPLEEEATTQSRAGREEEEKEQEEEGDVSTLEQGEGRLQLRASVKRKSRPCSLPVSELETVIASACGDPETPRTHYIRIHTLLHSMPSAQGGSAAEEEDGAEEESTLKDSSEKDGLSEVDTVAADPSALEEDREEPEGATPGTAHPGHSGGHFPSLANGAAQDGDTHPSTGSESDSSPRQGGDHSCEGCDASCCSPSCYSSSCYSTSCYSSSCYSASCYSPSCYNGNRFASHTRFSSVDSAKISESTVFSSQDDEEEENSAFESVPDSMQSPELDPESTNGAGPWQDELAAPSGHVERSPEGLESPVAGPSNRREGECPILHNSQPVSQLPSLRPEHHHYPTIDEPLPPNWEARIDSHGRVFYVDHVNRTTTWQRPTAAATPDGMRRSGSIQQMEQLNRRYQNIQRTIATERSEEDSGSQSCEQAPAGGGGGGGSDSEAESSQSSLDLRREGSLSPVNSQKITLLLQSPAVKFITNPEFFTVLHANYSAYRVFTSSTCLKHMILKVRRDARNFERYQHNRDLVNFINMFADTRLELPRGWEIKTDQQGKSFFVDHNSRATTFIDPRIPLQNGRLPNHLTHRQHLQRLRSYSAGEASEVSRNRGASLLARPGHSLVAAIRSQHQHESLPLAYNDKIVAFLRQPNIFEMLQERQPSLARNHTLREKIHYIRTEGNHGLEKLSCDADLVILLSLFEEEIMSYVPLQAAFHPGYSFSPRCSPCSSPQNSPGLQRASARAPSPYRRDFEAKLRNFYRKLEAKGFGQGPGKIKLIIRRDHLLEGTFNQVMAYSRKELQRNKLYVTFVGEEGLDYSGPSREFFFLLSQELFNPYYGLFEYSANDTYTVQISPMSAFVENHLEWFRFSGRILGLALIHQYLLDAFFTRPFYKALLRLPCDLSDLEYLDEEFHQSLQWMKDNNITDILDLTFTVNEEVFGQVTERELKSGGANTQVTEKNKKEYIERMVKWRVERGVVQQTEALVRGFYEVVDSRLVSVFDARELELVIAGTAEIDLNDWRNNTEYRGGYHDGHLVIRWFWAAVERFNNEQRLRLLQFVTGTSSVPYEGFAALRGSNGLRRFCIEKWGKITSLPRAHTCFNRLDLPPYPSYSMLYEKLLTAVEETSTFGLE
The test is described as follows: co-immunoprecipitation of ALFA-TXNIP, label-free quantitative interactome (mass spectrometry). Particulars: chain shown with the change, immunoprecipitated from HEK293T cells, n = 3, read off a plot.

B1: ALFA-tagged TXNIP (thioredoxin interacting protein), expressed in HEK293T, Q9H3M7 PPCY331AACA (protein)
chain: MVMFKKIKSFEVVFNDPEKVYGSGEKVAGRVIVEVCEVTRVKAVRILACGVAKVLWMQGSQQCKQTSEYLRYEDTLLLEDQPTGENEMVIMRPGNKYEYKFGFELPQGPLGTSFKGKYGCVDYWVKAFLDRPSQPTQETKKNFEVVDLVDVNTPDLMAPVSAKKEKKVSCMFIPDGRVSVSARIDRKGFCEGDEISIHADFENTCSRIVVPKAAIVARHTYLANGQTKVLTQKLSSVRGNHIISGTCASWRGKSLRVQKIRPSILGCNILRVEYSLLIYVSVPGSKKVILDLPLVIGSRSGLSSRTSSMASRTSSEMSWVDLNIPDTPEAAACAMDVIPEDHRLESPTTPLLDDMDGSQDSPIFMYAPEFKFMPPPTYTEVDPCILNNNVQ
For the molecule B1, the other: log2 PPxY331/WT was -6.5 log2.

B2: ALFA-tagged TXNIP (thioredoxin interacting protein), expressed in HEK293T, Q9H3M7 PPCY331AACA; PPTY375AATA (protein)
chain: MVMFKKIKSFEVVFNDPEKVYGSGEKVAGRVIVEVCEVTRVKAVRILACGVAKVLWMQGSQQCKQTSEYLRYEDTLLLEDQPTGENEMVIMRPGNKYEYKFGFELPQGPLGTSFKGKYGCVDYWVKAFLDRPSQPTQETKKNFEVVDLVDVNTPDLMAPVSAKKEKKVSCMFIPDGRVSVSARIDRKGFCEGDEISIHADFENTCSRIVVPKAAIVARHTYLANGQTKVLTQKLSSVRGNHIISGTCASWRGKSLRVQKIRPSILGCNILRVEYSLLIYVSVPGSKKVILDLPLVIGSRSGLSSRTSSMASRTSSEMSWVDLNIPDTPEAAACAMDVIPEDHRLESPTTPLLDDMDGSQDSPIFMYAPEFKFMPAATATEVDPCILNNNVQ
In turn, B2 registered an other: log2 PPxY/WT (volcano plot) of -6.6 log2.
